Molecular target: ARTS-VN (UniProt O43236)
Assay: split reporter

“Bcl-2delBH3-VC (from UniProt P10415 1-239) (natural protein)” was tested, and the percent decrease of the BiFC signal compared to WT Bcl-2 was 47%.
